Measured values reported in patent US9562073B2, “Matriptase and u-plasminogen activator substrates and other cleavable moieties and methods of use thereof” (CytomX Therapeutics, Inc., priority 2014, dated 2017).

Target: T1, Human matriptase-1 (Homo sapiens, UniProt Q9Y5Y6)
T1 construct: purchased Research & Diagnostics Systems, Inc
T1 sequence (Q9Y5Y6 1-855): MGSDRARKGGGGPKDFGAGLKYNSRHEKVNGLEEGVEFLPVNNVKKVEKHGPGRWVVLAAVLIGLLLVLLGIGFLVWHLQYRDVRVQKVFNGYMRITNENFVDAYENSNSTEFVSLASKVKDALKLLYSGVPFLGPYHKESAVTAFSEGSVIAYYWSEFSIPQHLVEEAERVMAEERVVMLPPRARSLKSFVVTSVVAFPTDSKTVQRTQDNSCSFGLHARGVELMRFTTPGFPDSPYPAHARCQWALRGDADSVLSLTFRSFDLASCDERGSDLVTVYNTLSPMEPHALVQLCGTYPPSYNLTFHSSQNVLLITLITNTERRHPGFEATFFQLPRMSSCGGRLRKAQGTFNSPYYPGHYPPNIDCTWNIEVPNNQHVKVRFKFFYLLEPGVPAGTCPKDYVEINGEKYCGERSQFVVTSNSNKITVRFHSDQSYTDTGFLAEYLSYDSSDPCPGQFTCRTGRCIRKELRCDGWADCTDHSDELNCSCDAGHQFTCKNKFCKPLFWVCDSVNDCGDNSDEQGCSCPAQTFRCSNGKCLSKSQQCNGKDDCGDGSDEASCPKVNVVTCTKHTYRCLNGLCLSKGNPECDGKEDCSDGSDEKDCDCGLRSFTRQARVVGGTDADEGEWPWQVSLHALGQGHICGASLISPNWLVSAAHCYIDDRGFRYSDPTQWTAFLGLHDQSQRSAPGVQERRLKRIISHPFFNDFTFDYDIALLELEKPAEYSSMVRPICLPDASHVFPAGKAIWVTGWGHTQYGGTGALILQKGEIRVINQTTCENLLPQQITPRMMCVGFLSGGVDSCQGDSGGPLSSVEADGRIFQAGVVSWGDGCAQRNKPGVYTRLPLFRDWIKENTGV
Experiment: Substrate cleavage by matriptase-1 on cell-displayed platform scaffold (eCLiPS3.0), flow cytometry
Assay type: biochemical
Conditions: substrate displayed in platform scaffold; TBST
Experimental: Reagents and Strains: Streptavidin-conjugated phycoerythrin (SA-PE) (Invitrogen, Life Technologies) was used without modifications. Human matriptase-1 (Research & Diagnostics Systems, Inc.) was used without modifications. Human plasmin (Haematologic Technologies Inc.) was used without modifications. Human tPA (Molecular Innovations) was used without modifications. YPet fused to the SH3 domain of Mona (monocytic adaptor) was used without modifications. TBST, 50 mM Tris-HCl, 150 mM NaCl, 0.05% Tween20, pH 7.4, was used. […]
Substrate Cleavage and Scaffold Stability Analysis: For screening and clone analysis, overnight cultures were subcultured by dilution into fresh medium (1:50) and grown for 1.5-2 hours. […] After incubation on ice (30 min), cells were washed with PBS and analyzed using a FACSAria™ cell sorter.
For protease cleavage assays, cultures were induced for 1 hour. […] Background hydrolysis of the regions flanking the substrate site (using platform eCLiPS3.0-NSUB_SP described in PCT patent application PCT/US13/54378, filed Aug. 9, 2013 and published as WO 2014/026136 on Feb. 13, 2014), was measured under each reaction condition to ensure that hydrolysis occurred in the designated substrate region. […]
Specifically, for each sample, conversion was determined by flow cytometry analyses using the relationship […]
[formula] allowing substrate conversion to be expressed as […]

VAGRSMRP (Cleavable moiety)
cleavage by matriptase-1: cleavage
